Measurements from the supplement of paper PMC10567573.

B1: SMOC2 (parent)
chain: DCAGSPQKPLCASDGRTFLSRCEF

Variants of: B1
Assay: protein stability index of a GFP-peptide fusion (GPS, HEK-293T) (PSI 1-6); higher = more stable
Conditions: c terminus: a fixed tail appended
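Also: lentivirally expressed fusions sorted by FACS into six bins by GFP to DsRed ratio, PSI derived from sequencing read proportions per bin multiplied by bin number.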

Point of comparison: DCAGSPQKPLCASDNRTFLSRCEF, protein stability index 3.01. Against it:
- DCAGSPQKPLCASDGYTFLSRCEF — lower, 2.33
- DCAGSPQKPLCASDGMTFLSRCEF — lower, 2.88
- DCAGSPQKPLCASDGVTFLSRCEF — lower, 2.77
- DCAGSPQKPLCASDGATFLSRCEF — lower, 2.99
- DCAGSPQKPLCASDGQTFLSRCEF — higher, 3.19
- DCAGSPQKPLCAQDGRTFLSRCEF — lower, 2.58
- DCAGSPQKPLCAMDGRTFLSRCEF — lower, 2.3
- DCAGSPQKPLCAVDGRTFLSRCEF — lower, 2.61
- DCAGSPQKPLCAYDGRTFLSRCEF — lower, 2.25
- DCAGSPQKPLCAEDGRTFLSRCEF — higher, 3.25
- DCAGSPQKPLCALDGRTFLSRCEF — lower, 2.07
- DCAGSPQKPLCADDGRTFLSRCEF — higher, 3.16
- DCAGSPQKPLCARDGRTFLSRCEF — lower, 2.34
- DCAGSPQKPLCAGDGRTFLSRCEF — lower, 2.08
- DCADSPQKPLCASDGRTFLSRCEF — higher, 4.36
- DCAASPQKPLCASDGRTFLSRCEF — lower, 2.77
- DCAKSPQKPLCASDGRTFLSRCEF — lower, 2.65
- DCAYSPQKPLCASDGRTFLSRCEF — lower, 2.22
- DCACSPQKPLCASDGRTFLSRCEF — higher, 3.17
- DCARSPQKPLCASDGRTFLSRCEF — lower, 2.08
- DCASSPQKPLCASDGRTFLSRCEF — lower, 2.24
- DCAGSPQKPLCASDGRTFLSRWEF — lower, 2.93
- DCAGSPQKPLCASDGRTFLSRNEF — higher, 4.36
- DCAGSPQKPLCASDGRTFLSRDEF — higher, 4.81
- DCAGSPQKPLCASDGRTFLSRMEF — lower, 2.31
- DCAGSPQKPLCASDGRTFLSRTEF — higher, 3.29
- DCAGSPQKPLCASDGRTFLSRHEF — higher, 3.68
- DCAGSPQKPLCASDGRTFLSRCRF — lower, 2.43
- DCAGSPQKPLCASDGRTFLSRCAF — lower, 2.59
- DCAGSPQKPLCASDGRTFLSRCHF — lower, 2.46
- DCAGSPQKPLCASDGRTFLSRCPF — lower, 2.95
- DCAGSPQKPLCASDGRTFLSRCWF — lower, 1.82
- DCAGSPQKPLCASDGRTFLSRCTF — lower, 2.19
- DCAGSPQKPLCASDGRTFLSRCFF — lower, 2.38
- DCAGSPQKPLCASDGRTFLSRCSF — lower, 2.74
- DCAGSPQKPLCASDGRTFLSRCDF — higher, 3.65
- DCAGSPQKPLCASDGRWFLSRCEF — lower, 1.29
- DCAGSPQKPLCASDGRGFLSRCEF — higher, 3.97
- DCAGSPQKPLCASDGRIFLSRCEF — lower, 2.33
- DCAGSPQKPLCASDGRLFLSRCEF — lower, 2.11
- DCAGSPQKPLCASDGREFLSRCEF — higher, 3.82
- DCAGSPQKPLCASDGRKFLSRCEF — higher, 3.44
- DCAGSPQKPLCASDGRSFLSRCEF — lower, 2.66
- DCAGSPQKPLCASDGRQFLSRCEF — higher, 3.7
- DCAGSPQKPLCASDGRTFISRCEF — lower, 2.07
- DCAGSPQKPLCASDGRTFRSRCEF — higher, 3.35
- DCAGSPQKPLCASDGRTFNSRCEF — higher, 4.01
- DCAGSPQKPLCASDGRTFASRCEF — lower, 2.44
- DCAGSPQKPLCASDGRTFWSRCEF — lower, 2.34
- DCAGSPQKPLCASDGRTFQSRCEF — lower, 2.49
- DCAGSPQKPLCASDGRTFESRCEF — higher, 3.51
- DCAGSPQKPLCASDGRTFKSRCEF — higher, 3.53
- DCAGSPQKPLCASDGRTFDSRCEF — higher, 4.93
- DCAGSPQKPLCASDGRTFVSRCEF — lower, 1.88
- DCAGSPQKPLCASDGRTFFSRCEF — higher, 4.33
- DCAGPPQKPLCASDGRTFLSRCEF — lower, 2.72
- DCAGAPQKPLCASDGRTFLSRCEF — lower, 2.94
- DCAGQPQKPLCASDGRTFLSRCEF — lower, 2.09
- DCAGLPQKPLCASDGRTFLSRCEF — lower, 2.46
- DCAGDPQKPLCASDGRTFLSRCEF — lower, 2.96
- DCAGYPQKPLCASDGRTFLSRCEF — lower, 2.68
- DCAGIPQKPLCASDGRTFLSRCEF — lower, 2.14
- DCAGKPQKPLCASDGRTFLSRCEF — lower, 2.72
- DCAGNPQKPLCASDGRTFLSRCEF — lower, 2.78
- DCAGSPQKPLCSSDGRTFLSRCEF — higher, 4.06
- DCAGSPQKPLCDSDGRTFLSRCEF — lower, 2.88
- DCAGSPQKPLCMSDGRTFLSRCEF — lower, 2.7
- DCAGSPQKPLCWSDGRTFLSRCEF — lower, 1.51
- DCAGSPQKPLCVSDGRTFLSRCEF — lower, 2.97
- DCAGSPQKPLCNSDGRTFLSRCEF — lower, 2.94
- DCAGSPQKPLCYSDGRTFLSRCEF — lower, 2.47
- DCAGSPQKPLCCSDGRTFLSRCEF — lower, 1.59
- DCAGSPQKPLCPSDGRTFLSRCEF — higher, 3.11
- DCAGSPQKPLCKSDGRTFLSRCEF — lower, 2.59
- DCAGSPQKPLCLSDGRTFLSRCEF — lower, 2.56
- DCAGSPQKPLCESDGRTFLSRCEF — higher, 3.96
- DCAGSPQKPLCISDGRTFLSRCEF — lower, 2.5
- DCAGSPQKPLCQSDGRTFLSRCEF — higher, 3.1
- DCAGSPQKPLCTSDGRTFLSRCEF — higher, 3.32
- DCAGSPQKPLCRSDGRTFLSRCEF — lower, 2.14
- DCLGSPQKPLCASDGRTFLSRCEF — lower, 2.73
- DCRGSPQKPLCASDGRTFLSRCEF — lower, 2.38
- DCFGSPQKPLCASDGRTFLSRCEF — higher, 3.16
- DCWGSPQKPLCASDGRTFLSRCEF — lower, 2.21
- DCTGSPQKPLCASDGRTFLSRCEF — lower, 2.56
- DCEGSPQKPLCASDGRTFLSRCEF — the same, 3.01
- DCIGSPQKPLCASDGRTFLSRCEF — lower, 2.71
- DCHGSPQKPLCASDGRTFLSRCEF — lower, 2.29
- DCAGSPQKPLCASDYRTFLSRCEF — lower, 2.81
- DCAGSPQKPLCASDFRTFLSRCEF — lower, 2.42
- DCAGSPQKPLCASDLRTFLSRCEF — lower, 2.17
- DCAGSPQKPLCASDARTFLSRCEF — higher, 4.08
- DCAGSPQKPLCASDERTFLSRCEF — higher, 4.05
